Laboratory results published in the supplement of paper PMC7125110.
± gives the standard error. For some of these results: Fewer inactive variants are shown than the library holds.

B1: glmS ribozyme (parent)
chain: AUAAAAGCGCCAGAACUACAGAAAUGUAGUUGACGAGGAGGAGGUUUAUCGAAUUUUCGGCGGAUGCCUCCAAA

Columns and labels:
Conditions in all cases: with glucosamine-6-phosphate
glucosamine-6-phosphate [1] = variants of: B1; experiment: kcat; higher = faster cleavage; RNA array
How it was run: (§1)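 Barcoded ribozyme variants, transcribed in situ by E. coli RNA polymerase on sequenced MiSeq chips, were followed via a hybridised Cy3 probe at 37 °C. Glucosamine-6-phosphate ranged from 40 μM to 10 mM in HEPES/KCl/Mg(OAc)2 buffer. kobs came from decay fits to per-tile medians, and kcat and KM from weighted Michaelis–Menten fits.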

glucosamine-6-phosphate [2] = variants of: B1; experiment: KM; higher = weaker cofactor use; RNA array
How it was run: as §1

glucosamine-6-phosphate [3] = variants of: B1; experiment: self-cleavage kobs at 160 uM GlcN6P; higher = faster cleavage; RNA array
How it was run: as §1

glucosamine-6-phosphate [4] = variants of: B1; experiment: self-cleavage kobs at 640 uM GlcN6P; higher = faster cleavage; RNA array
How it was run: as §1

glucosamine-6-phosphate [5] = variants of: B1; experiment: self-cleavage kobs at 2500 uM GlcN6P; higher = faster cleavage; RNA array
How it was run: as §1

glucosamine-6-phosphate [6] = variants of: B1; experiment: self-cleavage kobs at 10000 uM GlcN6P; higher = faster cleavage; RNA array
How it was run: as §1

glucosamine-6-phosphate [7] = variants of: B1; experiment: self-cleavage kobs at 40 uM GlcN6P; higher = faster cleavage; RNA array
How it was run: as §1

Variant | kcat (glucosamine-6-phosphate [1]) [s⁻¹] | KM (glucosamine-6-phosphate [2]) [µM] | self-cleavage kobs at 160 uM GlcN6P (glucosamine-6-phosphate [3]) [s⁻¹] | self-cleavage kobs at 640 uM GlcN6P (glucosamine-6-phosphate [4]) [s⁻¹] | self-cleavage kobs at 2500 uM GlcN6P (glucosamine-6-phosphate [5]) [s⁻¹] | self-cleavage kobs at 10000 uM GlcN6P (glucosamine-6-phosphate [6]) [s⁻¹] | self-cleavage kobs at 40 uM GlcN6P (glucosamine-6-phosphate [7]) [s⁻¹]
AUAAAAGCGCCAGAACUACAGAAAUGUAGUUGACGAGGAGGAGGUUUAUCGAAUUUUCGGCGGGUUCCUCCAAA | 0.00159 ± 7.8e-05 | 1210 ± 120 | 0.000178 ± 5.7e-05 | 0.000588 ± 0.00016 | 0.00102 ± 0.00034 | 0.00143 ± 0.0003 | 
AUAAAAGCGCCAGAACUACAGAAAUGUAGUUGACGAGGAGGAGGUUUAUCGAAUUUUCGGCGGACGUCUCCAAA | 0.000111 ± 9.1e-06 | 2040 ± 650 |  |  | 7.62e-05 ± 2.6e-05 | 9.15e-05 ± 1e-05 | 
AUAAAAGCGCCAGAACUACAGAAAUGUAGUUGACGAGGAGGAGGUUUAUCGAAUUUUCGGCGAAUGCUUCCAAA | < 1e-05 |  |  |  |  |  | < 1e-05
AUAAAAGCGCCAGAACUACAGAAAUGUAGUUGACGAGGAGGAGGUUUAUCGAAUUUUCGGCGCAGGCCUCCAAA | < 1e-05 |  | < 1e-05 |  |  | < 1e-05 | < 1e-05
AUAAAAGCGCCAGAACUACAGAAAUGUAGUUGACGAGGAGGAGGUUUAUCGAAUUUUCGGCUGAUGCCUGCAAA | 1.57e-05 ± 2.7e-06 |  |  |  |  |  | 
AUAAAAGCGCCAGAACUACAGAAAUGUAGUUGACGAGGAGGAGGUUUAUCGAAUUUUCGGCGGGCGCCUGCAAA | 1.52e-05 ± 6.7e-06 |  |  |  |  |  | 
AUAAAAGCGCCAGAACUACAGAAAUGUAGUUGACGAGGAGGAGGUUUAUCGAAUUUUCGGCGUAUGCCUCCAAA | < 1e-05 |  | < 1e-05 |  | < 1e-05 | < 1e-05 | < 1e-05
AUAAAAGCGCCAGAACUACAGAAAUGUAGUUGACGAGGAGGAGGUUUAUCGAAUUUUCGGCGUAUGCAUCCAAA | 1.22e-05 ± 2.6e-06 |  |  |  |  |  | 
AUAAAAGCGCCAGAACUACAGAAAUGUAGUUGACGAGGAGGAGGUUUAUCGAAUUUUCGGCGGGUGCCUGCAAA | 5.51e-05 ± 2.1e-06 | 224 ± 79 |  | 4.33e-05 ± 1.6e-05 |  | 5.41e-05 ± 8.6e-06 | < 1e-05
AUAAAAGCGCCAGAACUACAGAAAUGUAGUUGACGAGGAGGAGGUUUAUCGAAUUUUCGGCGAAUGCCGCCAAA | 6.54e-05 ± 2.8e-05 |  | 8.37e-05 ± 2.7e-05 | 0.000116 ± 3.3e-05 | 5.94e-05 ± 2.5e-05 |  | 
AUAAAAGCGCCAGAACUACAGAAAUGUAGUUGACGAGGAGGAGGUUUAUCGAAUUUUCGGCGAAUGCCACCAAA | 4.23e-05 ± 1.2e-05 |  | 5.41e-05 ± 2e-05 |  |  |  | 
AUAAAAGCGCCAGAACUACAGAAAUGUAGUUGACGAGGAGGAGGUUUAUCGAAUUUUCGGCGGAAGCGUCCAAA | 4.89e-05 ± 9e-06 |  | 8.12e-05 ± 1.8e-05 | 6.22e-05 ± 1e-05 | 4.97e-05 ± 1.2e-05 | 3.81e-05 ± 7.3e-06 | 
